Reference: patent US20120177639A1
Where a chain is given by its changes, count along the chain named. One block for each binder: values may come before it.

Key:
[1] = target: low-molecular-weight oligomers of Aβ (1-42) (UniProt P05067); assay: ELISA, antigen coated at 1 µg/ml, anti-human Fc peroxidase detection
[2] = target: protofibrils prepared from the synthetic peptide Aβ (1-42) (UniProt P05067); assay: as above
[3] = target: protofibrils prepared from the synthetic peptide Aβ (1-42) (UniProt P05067); assay: ELISA; ratio of the EC50 on low-molecular-weight oligomers to the EC50 on protofibrils

EC50 [1]: 41.4 µg/mL
EC50 [2]: 0.0587 µg/mL
LMW/PF [3]: 705
B1: humanized antibody LP09026 (antibody, human IgG4 S228P, kappa, V domains shown)
VH: EVQLQQSGPEVVKPGVSVKISCKGSGYTFTDYAMHWVKQSPGKSLEWIGVISTKYGKTNYNPSFQGQATMTVDKSSSTAYMELASLKASDSAIYYCARGDEGYSWGQGTSVTVSS
VL: EIVMTQTPLSLPVSLGDRASISCRSGQSLVHSNTNTYLHWYLQKPGQSPKLLIYTVSNRFSGVPDRFSGSGSGSDFTLTISRVEAEDLGVYFCSQNTFVPWTFGGGTKLEIKR

EC50 [1]: 21.8 µg/mL
EC50 [2]: 0.0892 µg/mL
LMW/PF [3]: 244
B2: humanized antibody LP09028 (antibody, human IgG4 S228P, kappa, V domains shown)
VH: B1 VH with E101D
VL: B1 VL

EC50 [1]: 14.7 µg/mL
EC50 [2]: 0.0798 µg/mL
LMW/PF [3]: 184
B3: humanized anti-peptide Aβ antibody VH1VL1 (LP09027) (antibody, human IgG4 S228P, kappa, V domains shown)
VH: B1 VH with E101D
VL: B1 VL with T34G
